# Reference: PMC3334620
# Target: T1, Stp1 (Saccharomyces cerevisiae) (UniProt Q00947)
# T1 sequence: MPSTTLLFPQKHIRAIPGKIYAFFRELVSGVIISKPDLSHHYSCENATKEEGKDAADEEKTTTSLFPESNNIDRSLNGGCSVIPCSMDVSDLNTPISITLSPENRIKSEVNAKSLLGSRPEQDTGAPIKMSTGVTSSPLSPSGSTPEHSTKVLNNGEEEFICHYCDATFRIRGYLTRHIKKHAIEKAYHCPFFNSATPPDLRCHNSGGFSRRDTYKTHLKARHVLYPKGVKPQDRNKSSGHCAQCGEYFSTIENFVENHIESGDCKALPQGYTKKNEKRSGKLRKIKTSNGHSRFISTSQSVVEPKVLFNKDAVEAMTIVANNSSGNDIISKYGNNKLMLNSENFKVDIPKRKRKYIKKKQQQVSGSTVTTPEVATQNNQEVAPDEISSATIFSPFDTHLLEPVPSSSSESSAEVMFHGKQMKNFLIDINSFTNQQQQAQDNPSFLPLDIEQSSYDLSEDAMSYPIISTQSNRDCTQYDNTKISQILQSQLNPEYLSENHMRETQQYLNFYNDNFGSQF
# Details: 200 nM
row,Sequence,binding signal (PBM E-score (-0.5 to 0.5))
1,ACGGCGCC (double strand) [8-mer ACGGCGCC],0.49
2,CGCGGCGC (double strand) [8-mer CGCGGCGC],0.492
3,CGCCGTGC (double strand) [8-mer CGCCGTGC],0.493
4,GCGCCGTA (double strand) [8-mer GCGCCGTA],0.495
5,ACGGCGCG (double strand) [8-mer ACGGCGCG],0.492
6,ACACGGCA (double strand) [8-mer ACACGGCA],0.49

# Target: T2, Pdr3 (Saccharomyces cerevisiae) (UniProt P33200)
# T2 sequence: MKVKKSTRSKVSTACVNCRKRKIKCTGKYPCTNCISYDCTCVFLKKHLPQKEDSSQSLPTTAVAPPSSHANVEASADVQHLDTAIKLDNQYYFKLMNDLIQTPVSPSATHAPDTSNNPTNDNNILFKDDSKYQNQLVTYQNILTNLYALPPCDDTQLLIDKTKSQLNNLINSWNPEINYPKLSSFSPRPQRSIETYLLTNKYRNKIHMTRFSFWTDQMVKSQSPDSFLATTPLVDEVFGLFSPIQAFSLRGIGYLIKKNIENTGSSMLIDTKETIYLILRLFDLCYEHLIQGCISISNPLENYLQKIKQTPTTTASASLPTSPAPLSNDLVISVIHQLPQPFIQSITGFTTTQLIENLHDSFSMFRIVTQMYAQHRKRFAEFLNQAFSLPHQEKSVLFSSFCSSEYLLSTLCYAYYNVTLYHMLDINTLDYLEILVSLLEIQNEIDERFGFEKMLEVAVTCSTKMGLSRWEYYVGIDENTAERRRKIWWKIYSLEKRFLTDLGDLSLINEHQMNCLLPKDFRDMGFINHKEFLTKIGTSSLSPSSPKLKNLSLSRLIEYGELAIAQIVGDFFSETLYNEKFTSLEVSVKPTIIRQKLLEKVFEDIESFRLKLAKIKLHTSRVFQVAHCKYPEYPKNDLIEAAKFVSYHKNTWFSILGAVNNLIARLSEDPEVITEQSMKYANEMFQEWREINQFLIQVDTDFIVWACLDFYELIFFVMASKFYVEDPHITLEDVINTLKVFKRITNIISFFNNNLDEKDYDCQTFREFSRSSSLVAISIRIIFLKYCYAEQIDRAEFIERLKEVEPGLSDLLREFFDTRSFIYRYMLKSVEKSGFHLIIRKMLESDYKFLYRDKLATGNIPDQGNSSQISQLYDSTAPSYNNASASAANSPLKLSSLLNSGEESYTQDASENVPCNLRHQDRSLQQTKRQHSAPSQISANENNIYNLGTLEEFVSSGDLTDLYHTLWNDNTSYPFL
# Details: 200 nM
row,Sequence,binding signal (PBM E-score (-0.5 to 0.5))
1,CCGCGGAG (double strand) [8-mer CCGCGGAG],0.498
2,CCGCGGAA (double strand) [8-mer CCGCGGAA],0.499
3,CCCCGCGG (double strand) [8-mer CCCCGCGG],0.492
4,CCGCGGAC (double strand) [8-mer CCGCGGAC],0.495
5,CCCGCGGA (double strand) [8-mer CCCGCGGA],0.498
6,CCGCGGCA (double strand) [8-mer CCGCGGCA],0.49
7,ATCCGCGG (double strand) [8-mer ATCCGCGG],0.496
8,CCCGCGGG (double strand) [8-mer CCCGCGGG],0.498
9,CCGCGGGA (double strand) [8-mer CCGCGGGA],0.499
10,GCCGCGGA (double strand) [8-mer GCCGCGGA],0.495
11,CGCGGAAC (double strand) [8-mer CGCGGAAC],0.491
12,ACCCGCGG (double strand) [8-mer ACCCGCGG],0.497
13,AACGGAAC (double strand) [8-mer AACGGAAC],0.49

# Target: T3, Stb5 (Saccharomyces cerevisiae) (UniProt P38699)
# T3 sequence: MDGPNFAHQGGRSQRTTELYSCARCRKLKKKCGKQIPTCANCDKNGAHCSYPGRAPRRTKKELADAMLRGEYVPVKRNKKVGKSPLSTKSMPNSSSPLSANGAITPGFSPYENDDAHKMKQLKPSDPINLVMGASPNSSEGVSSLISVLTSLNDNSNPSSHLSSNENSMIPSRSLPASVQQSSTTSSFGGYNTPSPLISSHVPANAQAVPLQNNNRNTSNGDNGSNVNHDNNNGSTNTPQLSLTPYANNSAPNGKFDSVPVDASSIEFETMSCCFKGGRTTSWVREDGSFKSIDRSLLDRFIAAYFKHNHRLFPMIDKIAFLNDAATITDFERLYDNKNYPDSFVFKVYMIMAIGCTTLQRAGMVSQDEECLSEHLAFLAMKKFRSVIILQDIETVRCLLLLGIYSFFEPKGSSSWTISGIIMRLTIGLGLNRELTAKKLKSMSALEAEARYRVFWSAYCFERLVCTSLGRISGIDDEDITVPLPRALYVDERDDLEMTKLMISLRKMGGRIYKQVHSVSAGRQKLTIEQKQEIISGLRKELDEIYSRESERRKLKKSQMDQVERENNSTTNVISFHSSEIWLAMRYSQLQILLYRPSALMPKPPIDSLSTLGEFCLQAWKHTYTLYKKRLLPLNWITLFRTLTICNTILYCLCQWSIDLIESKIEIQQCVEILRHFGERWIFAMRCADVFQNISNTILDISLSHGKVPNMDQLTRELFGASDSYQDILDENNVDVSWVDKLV
# Details: 200 nM
row,Sequence,binding signal (PBM E-score (-0.5 to 0.5))
1,CGGCACTA (double strand) [8-mer CGGCACTA],0.481
2,AACACCGC (double strand) [8-mer AACACCGC],0.48
3,CGGCCTTA (double strand) [8-mer CGGCCTTA],0.481
4,CGGAGATA (double strand) [8-mer CGGAGATA],0.48
5,CGGTGTTA (double strand) [8-mer CGGTGTTA],0.496
6,CGGTGATA (double strand) [8-mer CGGTGATA],0.488
7,AACCCCGC (double strand) [8-mer AACCCCGC],0.484
8,AAACACCG (double strand) [8-mer AAACACCG],0.491
9,CGGGGTTA (double strand) [8-mer CGGGGTTA],0.495
10,CGGTGCTA (double strand) [8-mer CGGTGCTA],0.488
11,CGGCGTTA (double strand) [8-mer CGGCGTTA],0.49
12,CGGCATTA (double strand) [8-mer CGGCATTA],0.489
13,CGGACTTA (double strand) [8-mer CGGACTTA],0.483
14,CGGTCTTA (double strand) [8-mer CGGTCTTA],0.48

# Target: T4, Msn1 (Saccharomyces cerevisiae) (UniProt P22148)
# T4 sequence: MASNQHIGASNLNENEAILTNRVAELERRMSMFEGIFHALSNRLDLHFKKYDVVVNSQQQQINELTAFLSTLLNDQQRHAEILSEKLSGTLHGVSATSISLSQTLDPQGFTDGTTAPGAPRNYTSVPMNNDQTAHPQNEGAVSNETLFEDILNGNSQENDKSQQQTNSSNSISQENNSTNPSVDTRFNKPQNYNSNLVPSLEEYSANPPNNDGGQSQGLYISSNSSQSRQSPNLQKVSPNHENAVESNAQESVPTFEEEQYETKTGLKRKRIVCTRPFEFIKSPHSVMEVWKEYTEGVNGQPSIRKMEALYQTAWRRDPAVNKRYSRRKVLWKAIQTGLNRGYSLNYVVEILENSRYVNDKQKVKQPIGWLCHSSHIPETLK
# Details: 200 nM
row,Sequence,binding signal (PBM E-score (-0.5 to 0.5))
1,AAAATGTC (double strand) [8-mer AAAATGTC],0.491
2,ATGTCCTA (double strand) [8-mer ATGTCCTA],0.497
3,ATTTGTCC (double strand) [8-mer ATTTGTCC],0.498
4,GGACAAAC (double strand) [8-mer GGACAAAC],0.491
5,AGGACATA (double strand) [8-mer AGGACATA],0.494
6,GGGACAAA (double strand) [8-mer GGGACAAA],0.496
7,AATGTCCC (double strand) [8-mer AATGTCCC],0.496

# Target: T5, Sko1 (Saccharomyces cerevisiae) (UniProt Q02100)
# T5 sequence: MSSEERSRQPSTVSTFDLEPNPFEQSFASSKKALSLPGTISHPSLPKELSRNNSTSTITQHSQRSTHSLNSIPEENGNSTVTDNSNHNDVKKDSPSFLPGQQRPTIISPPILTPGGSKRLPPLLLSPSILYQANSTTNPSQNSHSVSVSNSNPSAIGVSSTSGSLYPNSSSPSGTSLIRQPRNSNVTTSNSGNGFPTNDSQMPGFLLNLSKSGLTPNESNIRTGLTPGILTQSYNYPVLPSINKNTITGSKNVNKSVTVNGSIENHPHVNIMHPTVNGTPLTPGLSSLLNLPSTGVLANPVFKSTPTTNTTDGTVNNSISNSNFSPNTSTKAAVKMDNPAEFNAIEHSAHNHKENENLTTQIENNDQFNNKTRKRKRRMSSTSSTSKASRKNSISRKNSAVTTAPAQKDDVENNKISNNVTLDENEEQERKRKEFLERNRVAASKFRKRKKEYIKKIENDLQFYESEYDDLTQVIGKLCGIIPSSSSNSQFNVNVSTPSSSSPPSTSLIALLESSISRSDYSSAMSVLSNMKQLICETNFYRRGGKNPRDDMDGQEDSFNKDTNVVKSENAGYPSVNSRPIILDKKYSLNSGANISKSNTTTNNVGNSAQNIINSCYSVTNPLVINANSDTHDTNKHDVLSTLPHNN
# Details: 200 nM
row,Sequence,binding signal (PBM E-score (-0.5 to 0.5))
1,ACGTCATC (double strand) [8-mer ACGTCATC],0.498
2,ACGTCATG (double strand) [8-mer ACGTCATG],0.497
3,GTGACGTA (double strand) [8-mer GTGACGTA],0.494
4,CTACGTCA (double strand) [8-mer CTACGTCA],0.493
5,ACGTCATA (double strand) [8-mer ACGTCATA],0.498
6,ATGACGTA (double strand) [8-mer ATGACGTA],0.5
7,TGACGTCA (double strand) [8-mer TGACGTCA],0.499
8,ATACGTCA (double strand) [8-mer ATACGTCA],0.494
9,AATGACGT (double strand) [8-mer AATGACGT],0.498
10,ATGACGTC (double strand) [8-mer ATGACGTC],0.497
11,ATGACGTG (double strand) [8-mer ATGACGTG],0.496
